“And” between values parts separate entries of the source, which are not always exact repeats. Identical values can stand only once.

Common to all, as to settings: scale: KASH6 per SUN1
Assay [1] concerns the target SUN domain of human SUN1 (amino-acids 616-812) (human). The assay is described as follows: crystal structure.
Assay [2] has the same target. The assay is described as follows: SEC-MALS.
Assay [3] shares this target. Kind of assay: SEC-MALS. The source holds these as a separate data set. (SEC sorts molecules by how far they enter the pores of the column.)
Assay [4] shares this target. The assay is described as follows: SEC-MALS. This is another data set of the same source.

In the case of TGQLFQKSVDAAPTQQEDSWTSLEHILWPFTRLRHNGPPPV [KASH domain of human JAW1/LRMP (amino-acids 515-555)], the stoichiometry N – broadly, the number of molecules, sites or subunits per partner or assembly – in assay [1] was 0.67; in assay [2] it was 1; in assay [3], 0.67 and 1.

For the molecule EDSWTSLEHILWPFTRLRHNGPPPV [KASH6 core (human JAW1/LRMP amino-acids 531-555)], the stoichiometry N in assay [2] was 1; in assay [4], 0.67.

The values are drawn from paper doi:10.1101/2023.06.05.543797.
